Measured values: PMC7655957

Key:
HOOK3 (Homo sapiens) = HOOK3 (Homo sapiens) (UniProt Q86VS8); conditions: cited from earlier work
HOOK1 (Homo sapiens) = HOOK1 (Homo sapiens) (UniProt Q9UJC3); conditions: cited from earlier work
[1] = molecular target: WT_(ZIP+)/WT_(ZIP−), BICD2_(1–98) heterodimer with C-terminal ZIP+/ZIP− leucine zipper (mouse (cDNA, methods); called human in the results and in the legend of Fig. 1) (UniProt Q921C5); test: ITC; LIC1_(433–458) peptide titrated into ZIP+/ZIP− BICD2 heterodimers in the cell; 20 mM HEPES (pH 7.5), 100 mM NaCl, 0.5 mM TCEP; temperature given in the figure
[2] = molecular target: Y46D_(ZIP+)/WT_(ZIP−), half-functional BICD2_(1–98) heterodimer with C-terminal ZIP+/ZIP− leucine zipper (mouse (cDNA, methods); called human in the results and in the legend of Fig. 1) (UniProt Q921C5); test: as above

Chain of LIC1_(433–458), amphipathic helix of the dynein light intermediate chain-1 (Q9Y6G9 433-458): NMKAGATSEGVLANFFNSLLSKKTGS
Chain of LIC1 (Q9Y6G9 whole entry): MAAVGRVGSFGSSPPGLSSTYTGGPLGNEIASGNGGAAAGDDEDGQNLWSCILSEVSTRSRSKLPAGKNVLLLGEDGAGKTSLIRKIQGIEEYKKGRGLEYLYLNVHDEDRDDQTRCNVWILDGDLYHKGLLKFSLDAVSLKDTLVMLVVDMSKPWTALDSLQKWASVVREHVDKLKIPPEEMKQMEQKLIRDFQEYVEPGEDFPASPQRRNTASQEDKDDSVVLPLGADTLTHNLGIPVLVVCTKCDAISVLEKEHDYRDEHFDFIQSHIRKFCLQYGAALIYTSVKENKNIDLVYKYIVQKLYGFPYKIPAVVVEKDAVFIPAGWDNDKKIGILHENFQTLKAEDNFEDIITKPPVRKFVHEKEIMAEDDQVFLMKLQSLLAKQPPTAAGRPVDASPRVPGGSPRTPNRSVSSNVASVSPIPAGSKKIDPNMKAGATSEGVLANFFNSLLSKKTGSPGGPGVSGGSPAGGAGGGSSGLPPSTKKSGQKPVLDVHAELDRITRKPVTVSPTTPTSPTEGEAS
Chain of HOOK1 (Homo sapiens) (Q9UJC3 whole entry): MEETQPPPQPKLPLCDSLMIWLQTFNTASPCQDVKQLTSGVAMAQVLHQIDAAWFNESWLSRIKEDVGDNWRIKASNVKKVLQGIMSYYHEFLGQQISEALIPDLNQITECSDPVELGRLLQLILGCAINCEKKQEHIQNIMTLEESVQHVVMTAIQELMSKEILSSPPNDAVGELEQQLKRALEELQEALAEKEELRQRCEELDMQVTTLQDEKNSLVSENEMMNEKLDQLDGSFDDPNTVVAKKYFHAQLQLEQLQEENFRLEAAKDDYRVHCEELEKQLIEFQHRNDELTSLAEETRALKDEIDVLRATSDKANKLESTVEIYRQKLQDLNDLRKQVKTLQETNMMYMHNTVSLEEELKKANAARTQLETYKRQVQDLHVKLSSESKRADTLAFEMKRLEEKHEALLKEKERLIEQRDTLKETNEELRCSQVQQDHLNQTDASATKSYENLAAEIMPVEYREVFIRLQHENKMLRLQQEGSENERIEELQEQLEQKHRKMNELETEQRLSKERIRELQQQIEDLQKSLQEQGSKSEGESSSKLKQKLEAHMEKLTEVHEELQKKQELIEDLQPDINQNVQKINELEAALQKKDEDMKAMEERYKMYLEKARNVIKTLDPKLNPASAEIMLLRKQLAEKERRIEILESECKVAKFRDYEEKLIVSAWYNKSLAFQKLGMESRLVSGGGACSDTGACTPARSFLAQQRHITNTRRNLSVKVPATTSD
Chain of HOOK3 (Homo sapiens) (Q86VS8 whole entry): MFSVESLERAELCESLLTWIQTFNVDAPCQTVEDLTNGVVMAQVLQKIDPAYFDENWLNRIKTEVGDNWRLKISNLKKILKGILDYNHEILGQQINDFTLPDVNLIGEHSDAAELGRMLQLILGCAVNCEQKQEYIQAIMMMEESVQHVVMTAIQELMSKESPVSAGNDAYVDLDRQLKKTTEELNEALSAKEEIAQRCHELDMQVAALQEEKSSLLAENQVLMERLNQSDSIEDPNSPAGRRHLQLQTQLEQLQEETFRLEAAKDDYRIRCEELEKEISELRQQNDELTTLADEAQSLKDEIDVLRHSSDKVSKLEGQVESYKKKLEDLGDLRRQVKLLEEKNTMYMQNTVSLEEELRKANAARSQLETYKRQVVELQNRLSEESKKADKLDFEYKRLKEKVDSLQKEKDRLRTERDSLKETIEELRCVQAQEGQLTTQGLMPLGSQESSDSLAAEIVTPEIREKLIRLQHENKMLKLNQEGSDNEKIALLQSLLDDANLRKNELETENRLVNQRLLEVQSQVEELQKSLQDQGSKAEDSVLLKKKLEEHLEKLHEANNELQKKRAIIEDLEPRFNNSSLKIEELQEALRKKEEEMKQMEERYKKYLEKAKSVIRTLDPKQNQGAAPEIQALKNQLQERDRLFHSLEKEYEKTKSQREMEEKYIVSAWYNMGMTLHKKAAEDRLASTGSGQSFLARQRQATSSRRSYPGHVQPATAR

Row | Kd [1] [µM] | stoichiometry N [1] | Kd [2] [µM] | stoichiometry N [2] | Substance | Kd (HOOK3 (Homo sapiens)) [µM] | Kd (HOOK1 (Homo sapiens)) [µM]
1 |  |  |  |  | LIC1 (from UniProt Q9Y6G9) | 6.3 | 15.7
2 | 6.8 | 2 | 6.2 | 1.1 | LIC1_(433–458), amphipathic helix of the dynein light intermediate chain-1 (from UniProt Q9Y6G9 433-458) (peptide) |  | 
